This is an account of results in patent US20250101096A1 (SERA PROGNOSTICS, published 2025).

Assay [1] addresses T1, anti-IBP4 antibody clone variant 7D6.G4.
T1 construct: Mouse monoclonal; variant form; also called IBP4 (7D6.G4) V2; IBP4-7D6.G4
In words: ECLIA, peptide competes with IBP4 for the antibody.

For assay [2], the target named is T2, anti-IBP4 antibody clone variant 5B3.G9.
T2 construct: Mouse monoclonal; variant form expressed in CHO cells; also called IBP4 (5B3.G9) V1; IBP4-5B3.G9
In words: ECLIA, peptide competes with IBP4 for the antibody.

Assay [3] addresses T3, human insulin-like growth factor binding protein 4 (IBP4) (human, UniProt P22692 22-258).
T3 construct: also called IBP4 protein; IGFBP4
T3 sequence: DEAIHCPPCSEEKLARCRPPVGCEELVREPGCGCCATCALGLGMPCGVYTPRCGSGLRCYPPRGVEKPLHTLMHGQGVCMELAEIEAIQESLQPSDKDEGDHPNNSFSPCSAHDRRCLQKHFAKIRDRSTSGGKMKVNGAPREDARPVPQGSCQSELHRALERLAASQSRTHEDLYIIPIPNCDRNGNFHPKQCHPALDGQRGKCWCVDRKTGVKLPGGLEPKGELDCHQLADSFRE
In words: AC-MS, mAb on M-PVA beads, pooled pregnant serum, peptide …. An excerpt:
(§1) Anti-IBP4 antibody evaluation and selection. A total of 8 hybridoma clones (1H9.B6, 5C11.A7, 7G11.H4, 3D4.E9, 1G3.A3, 8G4.G11, 5F10.B2, and 3D8.A11) were produced according to the “additional production of anti-IBP4 antibodies” methods disclosed in Example 1 and screened by AC-MS, shown in Table 10 below. Monoclonal antibodies from these clones purified by protein-G affinity chromatography were covalently coupled to M-PVA magnetic beads and used in AC-MS experiments using pooled pregnant serum. The 5B3.G9 anti-IBP4 antibody clone was included in this analysis for comparison to the performance of the additional IBP4 antibodies, as shown and italicized in Table 10 below. Table 10 includes a summary of the additional antibodies Response Ratios and shared epitope binding results as determined by the competitive binding assays of Example 3.

Assay [4] concerns the target T3, human insulin-like growth factor …. Description: AC-MS, mAb on M-PVA beads, pooled pregnant serum.
Source text: as §1

Assay [5] has the same target. In words: AC-MS, mAb on M-PVA beads, QC2 serum, round 1.
The target is the same in assay [6]. In words: AC-MS, mAb on M-PVA beads, QC2 serum, round 2 (beads reused).
The target is the same in assay [7]. In words: AC-MS, mAb on M-PVA beads, QC2 serum, round 3 (beads reused).
Assay [8] has the same target. Description: SPR, format and IBP4 form not stated. (Surface plasmon resonance follows binding to a sensor surface in real time, without labels.)
Assay [9] concerns the target T4, human sex hormone-binding globulin (SHBG) (human, UniProt P04278 30-402, O-linked glycan at T36 (native glycosylated form)).
T4 construct: Purified human SHBG, the SHBG antigen of the SPR runs, or SHBG in human serum; also called SHBG protein
T4 sequence: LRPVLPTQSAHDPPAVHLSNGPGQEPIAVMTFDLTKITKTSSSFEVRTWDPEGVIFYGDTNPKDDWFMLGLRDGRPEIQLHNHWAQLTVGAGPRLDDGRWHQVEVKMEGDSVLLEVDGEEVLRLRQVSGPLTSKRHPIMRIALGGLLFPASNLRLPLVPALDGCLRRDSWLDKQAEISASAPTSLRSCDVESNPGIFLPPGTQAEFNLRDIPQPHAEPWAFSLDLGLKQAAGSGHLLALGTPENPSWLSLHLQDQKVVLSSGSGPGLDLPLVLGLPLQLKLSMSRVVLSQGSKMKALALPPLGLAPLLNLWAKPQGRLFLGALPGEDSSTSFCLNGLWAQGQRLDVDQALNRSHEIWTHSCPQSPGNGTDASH
Description: SPR (Biacore T100), mAb captured on anti-mouse IgG, SHBG antigen injected, 1:1 fit, assay 1. How it is done:
(§2) Surface plasmon resonance experiments were performed on a BiacoreT100 to characterize the anti-SHBG and anti-IBP4 antibodies. Anti-mouse-IgG antibody was amine coupled to ˜500 RU on a C1 sensor chip using standard NHS/EDC activation. Test monoclonal antibodies were captured on the anti-mouse-IgG surfaces. The binding for the Sex Hormone Binding Globulin Antigen to anti-SHBG variant antibodies 4G10.F8 and 13C9.E5 were measured in a multi-cycle kinetic mode. Binding studies were performed in PBS buffer+0.05% P20+3 mM EDTA at 25 degrees C. SHBG was captured for 1 minute at 200 nM and regenerated with 1/100 H3PO4 after each cycle. SHBG was captured to similar densities on 2 different flow cells followed by an injection of the SHBG antigen in a 3-fold titration series up to 600 nM over the two surfaces. The responses were processed by subtracting the buffer injection to correct for drift. The data sets fit well to a simple 1:1 interaction model using SCRUBBER (Biologic Software Pty Ltd). The antigen concentration series was tested three times over each surface, giving rise to the kinetic an affinity parameters summarized below.

The target in assay [10] is T4, human sex hormone-binding globulin …. In words: SPR (Biacore T100), mAb captured on anti-mouse IgG, SHBG antigen injected, average of 3 assays. The procedure:
as §2

The target is the same in assay [11]. Description: SPR (Biacore T100), mAb captured on anti-mouse IgG, SHBG antigen injected, 1:1 fit, assay 3. How it is done: as §2
Assay [12] shares this target. In words: SPR (Biacore T100), mAb captured on anti-mouse IgG, SHBG antigen injected, 1:1 fit, assay 2. The procedure: as §2

Positions count from the first letter of the chain named.

T2 sequence (heavy, as listed by the source, chain 1 of 2): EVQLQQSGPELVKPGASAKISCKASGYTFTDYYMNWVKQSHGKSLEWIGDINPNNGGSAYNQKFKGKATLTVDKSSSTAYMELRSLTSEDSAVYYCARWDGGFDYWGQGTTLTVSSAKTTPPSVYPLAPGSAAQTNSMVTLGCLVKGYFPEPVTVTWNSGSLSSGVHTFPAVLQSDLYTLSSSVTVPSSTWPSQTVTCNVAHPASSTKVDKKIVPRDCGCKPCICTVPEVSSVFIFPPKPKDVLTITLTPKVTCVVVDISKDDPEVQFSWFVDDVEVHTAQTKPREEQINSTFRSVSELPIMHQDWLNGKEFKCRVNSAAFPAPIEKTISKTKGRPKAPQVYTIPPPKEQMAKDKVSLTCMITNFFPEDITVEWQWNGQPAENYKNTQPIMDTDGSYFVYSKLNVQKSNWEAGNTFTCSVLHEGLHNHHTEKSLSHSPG
T2 sequence (light, as listed by the source, chain 2 of 2): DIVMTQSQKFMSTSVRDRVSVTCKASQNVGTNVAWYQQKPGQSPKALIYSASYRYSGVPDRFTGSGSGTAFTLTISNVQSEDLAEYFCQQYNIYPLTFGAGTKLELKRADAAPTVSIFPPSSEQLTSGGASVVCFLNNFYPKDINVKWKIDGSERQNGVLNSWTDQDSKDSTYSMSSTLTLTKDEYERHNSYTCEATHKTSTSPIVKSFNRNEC
T1 sequence (VH, as listed by the source, chain 1 of 2): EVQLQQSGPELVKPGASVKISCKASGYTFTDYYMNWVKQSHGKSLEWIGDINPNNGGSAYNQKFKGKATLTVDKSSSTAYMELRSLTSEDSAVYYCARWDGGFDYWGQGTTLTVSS
T1 sequence (VL, as listed by the source, chain 2 of 2): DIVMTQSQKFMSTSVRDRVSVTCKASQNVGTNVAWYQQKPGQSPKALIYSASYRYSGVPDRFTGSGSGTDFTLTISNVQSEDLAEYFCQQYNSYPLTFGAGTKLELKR

Turning to PALDGQRGKCWCVDR [G9], the binding result in assay [1] and in assay [2] was “binds” each time.

Consider HPKQCHPALDGQRGK [G6], for which the binding result in assay [1] and in [2] was “no binding (tested: about 7 ul of peptide)” throughout.

On to LDGQRGKCWCVDRKT [G10], for which the binding result in assay [1] and in assay [2] was “binds” in each case.

For CHPALDGQRGKCWCV [G8], the binding result in [1] and in [2] was “binds” throughout.

With VDRKTGVKLPGGLEP [H3], the binding result in assay [1] and in assay [2] was “no binding (tested: about 7 ul of peptide)” in each case.

B1: anti-IBP4 antibody 3D4.E9 (antibody, mouse IgG2b, kappa, V domains shown)
VH: QVQLQQSGAELVRPGASVTLSCKASGYTFTDYEMHWVKQTPVHGLEWIGAIDPETGGAAYNQKFKGKAILTADKSSSTAYMELRSLTSEDSAVYYCTRARGSSSVYYFDYWGQGTTLTVSS
VL: DIVMTQSQKFMSTSVGDRVSVTCKASQNVGTNVAWYQQKPGQSPKALIYSTSYRYSGVPDRFTGSRSGTDFILTISNVQSEDLAEYFCQQYDSYPLTFGSGTKLEIKR
notes: Mouse hybridoma mAb raised against FL IBP4; also called IBP4-3D4.E9
In general, Kd refers to the constant that tells how readily two partners part at equilibrium. Read a high Kd as a looser complex. For orientation: koff means the first-order rate constant of dissociation. Low readings indicate slow dissociation, high ones fast dissociation. One may read the kon as the second-order rate constant of association. Lower therefore signals slower complex formation. Take B1: in [3], the “Response Ratio” value is 0.439. Further, the “ave IBP4 AC-MS RR” value in assay [4] was 0.439. Besides, the “ave RR” value in [5] worked out at 0.491. Further, in assay [6], the “ave RR” value amounted to 0.468. The “ave RR” value in assay [7] is 0.454. In [8], this molecule gave a dissociation constant Kd of 8 nM, a koff of 0.00221 s⁻¹, a kon of 270000 M⁻¹ s⁻¹ and a t1/2 of 314 s.

B2: anti-SHBG antibody clone variant 13C9.E5 (antibody, mouse IgG1, kappa, V domains shown)
VH: QIQLQQPGAELVKPGASVKMSCKASGYTFTGYWMHWVKQRPGQGLEWIGVIDPSDTYTNYNQKFRGKATLTVDTSSSTAYMQLSGLTSEDSAVYYCTRDPLVTADFDYWGQGTTLTVSS
VL: B1 VL with G30D, Q37R, T51A, Y55F, R66G, I72T, V78F, L96Y, S100G
notes: Mouse monoclonal; variant form; also called SHBG (13C9.E5) Anti SHBG v2; SHBG #16
Regarding B2, the Kd in assay [9] worked out at 0.415 nM; in assay [10], 0.8 nM; in assay [11], 1.27 nM; in [12], 0.765 nM. The koff stood at 4.54e-05 s⁻¹ in assay [9], 8e-05 s⁻¹ in assay [10], 0.000119 s⁻¹ in assay [11] and 7.94e-05 s⁻¹ in [12]. The kon stood at 109000 M⁻¹ s⁻¹ in assay [9], 103000 M⁻¹ s⁻¹ in assay [10], 94100 M⁻¹ s⁻¹ in [11] and 104000 M⁻¹ s⁻¹ in assay [12].

B3: anti-IBP4 antibody 1G3.A3 (antibody, mouse IgG1)
heavy: QVQLQQSGAELVRPGASVTLSCKASGYTFTDYEMHWVKQTPVHGLEWIGAIDPETGGIAYNQKFRGKAILTADKSSSTAYMELRSLTSEDSAVYYCARNYGISSYYAVDYWGQGTSVTVSSAKTTPPSVYPLAPGSAAQTNSMVTLGCLVKGYFPEPVTVTWNSGSLSSGVHTFPAVLQSDLYTLSSSVTVPSSTWPSQTVTCNVAHPASSTKVDKKIVPRDCGCKPCICTVPEVSSVFIFPPKPKDVLTITLTPKVTCVVVDISKDDPEVQFSWFVDDVEVHTAQTKPREEQINSTFRSVSELPIMHQDWLNGKEFKCRVNSAAFPAPIEKTISKTKGRPKAPQVYTIPPPKEQMAKDKVSLTCMITNFFPEDITVEWQWNGQPAENYKNTQPIMDTDGSYFVYSKLNVQKSNWEAGNTFTCSVLHEGLHNHHTEKSLSHSPGK
light: DIVMTQSQKFMSTTVGERVSITCKASQNVGTAVAWYQQKPGQSPKLLIYSASNRYTGVPDRFTGSGSGTDFTLTISNMQSEDLADYVSQQYSSYPLTFGAGTKLELK
notes: Mouse hybridoma mAb raised against FL IBP4; also called IBP4-1G3.A3
In the case of B3, the “Response Ratio” value in assay [3] is 0.272. Also, the “ave IBP4 AC-MS RR” value in assay [4] was 0.272. The “ave RR” value in assay [5] was 0.281. Further, the “ave RR” value in assay [6] was determined as 0.291. Further, in assay [7], the “ave RR” value was 0.289. In [8], the Kd turned out to be 22 nM, the koff was 0.0033 s⁻¹, the kon came out at 160000 M⁻¹ s⁻¹ and the t1/2 came out at 210 s.
